Changes are numbered by the printed parent chain.

The test deals with CD47 on the surface of human red blood cells (human) (UniProt Q08722). Briefly: FACS, hRBC, 500 nM.

B1: h140Hm13/h140Lm11 (antibody, V domains shown)
VH: EVQLVQSGAEVKKPGASVKVSCKASGYKFTNYVMSWVRQAPGQRLEWMGYINPYNDAIKYNEKFTGRVTITRDTSASTAYMELSSLRSEDTAVYYCAREGDFYANYGRLGFAYWGQGTLVTVSS
VL: DIQMTQSPSSLSASVGDRVTITCRASQDITNYLNWYQQKPGKAPKLLIYYTSRLSSGVPSRFSGSGSGTDYTFTISSLQPEDIATYFCQQGDTRPYTFGGGTKVEIK
Molecule B1 gave an FACS (MFI) of 789 MFI.

B2: h140Hm13/h140Lm15 (antibody, V domains shown)
VH: B1 VH
VL: B1 VL with S55Q, R94K
In turn, B2 returned an FACS (MFI) of 954 MFI.

B3: h140Hm13/h140Lm12 (antibody, V domains shown)
VH: B1 VH
VL: B1 VL with S55Q
Regarding B3, the FACS (MFI) turned out to be 946 MFI.

B4: h140Hm13/h140Lm13 (antibody, V domains shown)
VH: B1 VH
VL: B1 VL with S55H, R94F
Molecule B4 yielded an FACS (MFI) of 1760 MFI.

B5: h140Hm13/h140Lm16 (antibody, V domains shown)
VH: B1 VH
VL: B1 VL with S55Q, R94S
B5 yielded an FACS (MFI) of 721 MFI.

B6: h140Hm13/h140Lm18 (antibody, V domains shown)
VH: B1 VH
VL: B1 VL with S55Q, R94N
As for B6, the FACS (MFI) worked out at 697 MFI.

B7: h140Hm13/h140Lm14 (antibody, V domains shown)
VH: B1 VH
VL: B1 VL with S55Q, R94Y
Turning to B7, the FACS (MFI) stood at 921 MFI.

B8: h140Hm13/h140Lm17 (antibody, V domains shown)
VH: B1 VH
VL: B1 VL with S55Q, R94E
B8 had an FACS (MFI) of 689 MFI.

The values are drawn from US20230406921A1.
